Article PMC4861259, “An Interplay of S-Nitrosylation and Metal Ion Binding for Astrocytic S100B Protein” (PLoS ONE, 2016)

B1: recombinant human S100B protein, unmodified (S100BSH) (natural protein, UniProt P04271 1-92, looked up)
chain: MSELEKAMVALIDVFHQYSGREGDKHKLKKSELKELINNELSHFLEEIKEQEVVDKVMETLDNDGDGECDFQEFMAFVAMVTTACHEFFEHE
notes: S100B protein, human, recombinant; Non-covalent homodimer; source: E. coli bacterial culture, purified (semi-preparative HPLC, C18)
B2: recombinant human S100B protein, S-nitrosylated at Cys84 (S100BSNO) (natural protein, UniProt P04271 1-92, looked up)
chain: B1 chain
modifications: S-nitrosylated cysteine (SNO) at Cys84
notes: S100B protein, human, recombinant, chemically S-nitrosylated at Cys84; Non-covalent homodimer; also called S100BNO; S-nitrosylated S100B; source: E. coli, chemically S-nitrosylated, purified (semi-preparative HPLC, C18)

Biological target: the molecule itself
Experiment: SEC; Superdex 75 10/300 GL; 200 μl of 100 μM protein loaded, before and after every ITC run, in the ITC buffers (10 mM TES pH 7.2 with 15 mM or 150 mM NaCl, with or without CaCl2)

Protein | stoichiometry N
B1 | 2
B2 | 2
